Experiment: label from the status in PepcDB records

| Sequence | protein production |
| --- | --- |
| MSIRIKLPDGSVREFEEEASIEDVAASISCGLEHAVAGKLNGKLVDLSTPLQDGALVEIVTRDSAEGQKIVREKSRGKGRIVALDAARGLAVIGMYLQHFALNETNGSIVSGNTTLLFVLCGGISYSIMAGRMMDRGMEPAAFRTRMLARAVFIDMIGYLLIMLNTPFGVILPAYAALFVLALVLIRRSTRVLVTTAAVLLAVSPPLMILGGSVLSGANLLGDIAGGPMSALALAPAFVAGMAIGRFDLTRMRTALSLVSSGAVMLIVSKLLGVFVLPWLSRSFEEWLVSVQGTAGAEPDQYAIWPHNVAPPLWHNLLSIAPHSASTFQTMLGLGAAFLVLGMVCLVPQKISAVLKPFAGVGRVALTMYAAQFVVIWALEISGAKYDIGAIPFGDLFVAAVATVTGWLIARLPTGPLETAMRRFDRAFSNLGPVTGPARLR | failed |
| MIKNNIKHTWYFGHPQQLVWDYLTKPELLSQWLMESDFQPVAGHTFMFNTKPKVKVGFDGLIYCQVLKVQPDHELEHHHHHH | not failed |
| MPFCPEEFYCRITQNIESLNNIAKIQHAANTDYLTDLANRRAFFRSAESRIKEYINKKVPYCLAMIDVDFFKKVNDTYGHDSGDQVLKVIALYMRKHFGAGLTARLGGEEFAVLLHGLDADYLHNKLDDFRREIAVSSIPAGDTSISITLSLGVVFDSEDELSKQMNEADNALYAAKENGRNQIVVFGAELDDLEHHHHHH | failed |
| MMTDEARAKLAAIPMLAGYTGPLERLGGLTNLVFRAGDLCLRIPGKGTEEYINRANEAVAAREAAKAGVSPEVLHVDPATGVMVTRYIAGAQTMSPEKFKTRPGSPARAGEAFRKLHGSGAVFPFRFELFAMIDDYLKVLSTKNVTLPAGYHDVVREAGGVRSALAAHPLPLAACHCDPLCENFLDTGERMWIVDWEYSGMNDPLWDLGDLSVEGKFNANQDEELMRAYFGGEARPAERGRVVIYKAMCDLLWTLWGLIQLANDNPVDDFRAYADGRFARCKALMETPEFSRHLAAVRMG | not failed |
| TEERLKEIEAKYDEIAKDWPKKVKHVLHEEHELELTRVQVYTCDKCEEEGTIWSYHCDECDFDLHAKCALNEDTKE | not failed |
| MSNEMYYVQASDPAILEKGECGGAVTALFKYLLDKGIVDGVLALKKGVDVYDAIPTFVTSSEDLLSTAGSLHCAPTMWGGIIKEYLQDAKIAVPVKPCDMRAIVELAKRAQINLDNVYMIGLNCGGTVPPKTAMEMIKLFYEVDPKDVVKEEIDKGKFIIVMNDGSHKEVKMHDLEDNGYGRRVNCQRCDEKIPRKADIAAGNWGVIGEDAGKYTFMEVCTEKGKQLLEDAEKDGYIKKKSPNPKGIEIRAKVESSMLKMGEDYKNKWLEEEYPTIEEWNRQWNKCIKCYGCRDVCPVCFCRECALNADYLDSGSIPPNPIMFQGVRMSHMAFSCVNCGQCEDVCPMEIPVARIFHKVQEKTRKELGYRPGVDDEAPPALGGSCPTQ | failed |
| MKKLKRAYKMEINPTDEQKSKIHQTIGVSRFIYNFYIARNKEIYEKEGKFVSGMDFSKWLNNEYIPNNQEMKWIKEVSSKATKQAIMNGDKSFRDFFKKAKGFPRFKKKKNQDVKAYFPKNNKTDWTIERHRVKIPTLGWVRLKEFGYIPTNSIVKSGTVSQKADRYYVSILVEETDIKISNSNIGIKIFNHNNEGIGIDLGIKDFAICSNGNKFKNINKTSTIKKVEKNLKREQRKLSRKYESLKIRNKKEKGGNVTRQNIQKQIVKVQKLHQRLTNIRTDYINKIVSSIIKQKPSYITIEDLNVKGMMKNKHLSKAIASQKFFEFKTKLMSKCKQNDVELRIVDRFYPSSKTCSQCGEIKKDLKLSDRVYKCSCGLVIDRDLNASINLRNAKEYKIALEHHHHHH | not failed |
| MTSNGQQGKPNLPEKDNLPRELGTQRINSPIARMGMFGAKTTGDTSGYGRLRVYRHVPAAAQRPYSDPSDPRTAYFDEVADALERSLKEIGTPYDTAISRVVVDRGEITFHVQREHLLDVATRLRDDPALRFELCLGVTGVHYPEDEGNELHAVYALRSITHNYEIRLEVSCPDSDPHIPSIVSVYPTNDWHEREAWDFFGIIFDGHPALTR | not failed |
| MEPRVGNKFRLGRKIGGGSFGEIYLGTNIQTNEEVAIKLENVKTKHPQLLYESKLYKVLQGGTGVPNVKWYGVEGDYNVLVIDLLGPSLEDLFNFCSRKLSLKTVLMLADQMINRIEFVHQKSFLHRDIKPDNFLMGLGRRANQVYVIDFGLAKKYRDSNHQHIPYRENKNLTGTARYASMNTHLGIEQSRRDDLESLGFVLMYFLKGSLPWQGLKAGNKKQKYEKISEKKVSTSIEALCRGYPSEFASYFHYCRSLRFDDKPDYAYLKRLFRDLFIREGFQFDYVFDWTILKYQQSQISTPPPRHHGPVVGPSSALPPAITSAERPSGGDEARPSGWSSGIPRRNSGQIFNSGSLAKQKAPVSSDPAISKDVVLSSSSFLRATGSSRRAAVSSSREAAVLGTDSEPSNPQIVEAGSGSNSKIPVSRNSPIVSSEINKLSSPSRATTSVMKNYEANLKGIESLHF | not failed |
| MSNGTPQKTKLHFPHTYALIFFIIILAALASYFIPSGEFKRVEEDGQTVIVQGSYKQTDAGPVGFFEMFKAIPEGMIQSADIIFYIFLIGGAFGIIHQTGMIRAGVHVLVQRLKKRGFLLIPVTMFVFSIGGATIGLSEETIIFIPIGIAVARALGYDSMTGLAMISLGAAAGFTGGMLNPFTVGIAQTIAEVPVFSAFGYRLAVYAAMLGFSIFYVMRYAQQVKAHPNTGLMYGSETEINEETAAGHADLSFTGRHGLVLLITALGFGINMFGVFQWGWFLSELSAGFLIIGFAAGLAGGRGINNTFHSFVDGMKQVVYGALIVGFARAIVIVLENGHIIDTIINSLASAISSLPNEISAIGMFAVQIAINTFIPSGSGQAATTMPLMAPLADLLGFERQIAVFAYQYGDGITNSIIPTSGVLLASLSIAGVPYERWVKFVWKLIAGWIIIGAAAIVIAMIIGIK | failed |
| MKSYTKHTHTNRLASESSPYLLQHAHNPVEWFPWGEEALQKAKAEDKPILVSIGYSACHWCHVMEHECFEKEEVAAVMNDLFINIKIDREERPDLDQIYMDAVSAMGLRGGWPLNVFLTPDAKPFYGGTYFPQDHWLNLLGQISNAYLNHREDILKSAESFTESLNQSDVF | not failed |
| MNKHLKIQIMNIHSEREIYSARVLNAPIEIVYEAFANPSYLKNWWGPKGFTNTIHAFDLQPGGKWILTMHGPEKGNYENSSIFKIVEPQKLISWERKSKPLFDMEVEFKKLNNLQTEISFRMTFSTKEDCDKIRSFVEPQNEELRSIRKRNSEHKLIPTCIPRHPHWLVFQSRQ | failed |
| MPQPTVLLLARADLSPVGTEFTTGPIDAHDPFDSGRRTAFVDEQGIAAGIVEFGTALSVEAYPYTEMLVMHRGSVTLTSGTDSVTLSTGESAVIGRGTQVRIDAQPESLWAFCASTQASGPDKSGITALDRLALLTPSSPPDPSIMISPLPQCRSNNLFEDTASTLRIGVWDSTPYERISRPHKIHELMNLIEGRVVLSLENGSSLTVNTGDTVFVAQGAPCKWTSTGYVRKFYAVT | not failed |
| SFKPVMQKFLHDHVDLQVSALYALQVHCYNSNFPKGMLLRFFVHFYDMEIIEEEAFLAWKEDITQEFPGKGKALFQVNQ | failed |
| MAQSNSRETFSSRLGFILAAAGAAVGLGNIWGFPTQAASNGGGAFLLVYLILIFVVAFPMLVVEMAIGRYGQANPVDSMRSLTSQPAAKKVGGFVGWVGLSVPSAVLAFYSIVGGWIICFLLGAMTDLFGFTAASAWLKGFSVERNLFGTLIFYVLTILIVQGGVKQGIERWSTRLMPALFVLFAVLFIYIMTQQGAWEGLKHYLIPDFEKVWDRKLILAAMGQGFFSLTIGGCSMLIYGSYLSKKENLPKMAMSVTLVDTAVAFIAGLVVLPAMFVAMNKGVQIYAQDGSLLSSDTLVFTVLPLMFDSLGLLGQIFAMVFFLLLTIAALTSSISMLECPVALVGERFNTRRTPTSWVLGGLIALFSVVIVYNFGALFGLVATLATQYLQPTAALMFCLFGGWVWQRDAKMKELQAGFPELQQSLFGKIWPWYVKFVCPVLVATVIWASFG | failed |
| MSEDEAQFHGNYDDYVTYLKRRIRQLELQVRMLEADKERLERELSRLRSEMSRLRQPPAFAGSVIEVLDDDRAIVQNYNGPRFVVRIAPWIDKSKLRPGTRVALDQRTMAIIEILPASKDPAVLGFEVVERPN | failed |
| MRGPFMGFSIEFGEANLDKLGVRRTSERVSQPPLTLKNYALSRSIGRGNTSDVRLATGPDGREVAIKLPLPATLRQHDAAERFGNEVRLTLQFRHPHVVRGFAGTPFGPGAFLALFYYPDGPLSNRLRGQPLPNEEALRILADIAAALAYLHRLGAVHQDVKPQNVYVSGGRAALGDLGSAYFVAQGSKTSGSPYYMAPEVYHGESTSSASDVYSLGVMAWELLTGARPFSGNSYEELMVAHLSRFPAPLASLRPELPRALSRLLDRTFAKRPHERPTADALRRALLEALGETPQEEDLPAEEVPLASQQAGRHTAAPRVTGPQGPAETPAQPERVRPARRGWNPFRRKG | failed |
| MPASVMTDLSAAWAAFEAHDYALAERQAQALLAHPATASGARFMLGYVYAFMDRFDEARASFQALQQQAQKSGDHTAEHRALHQVGMVERMAGNWDAARRCFLEERELLASLPEDPLAASANAYEVATVALHFGDLAGARQEYEKSLVYAQQADDQVAIACAFRGLGDLAQQEKNLLEAQQHWLRARDIFAELEDSEAVNELMTRLNGTEG | failed |
| MRGANERKTERARGLRQSDNDAEALLWSELRDRRLNGFKFVRQVAVGPYFADFACRDERLVVEVDGSQHQIGSGDARRDKFMVMNGWSVLRFWNTDIFNDRAAVLETIVAVLEKRLVREVRSADLTFIPGEKKR | not failed |
| MSLVRSKAPLRLGLAGGGSDVSPYSDIYGGLILNATINLYAYCTIEETNSGRIEINAYDAQCCKSYLSMSQLEIDGEASLIKGVYNRIIRDYRLEPKSFKITTYNDAPAGSGLGTSSTMVVCILKAFIEWLSLPLGDYETSRLAYEIERKDLGLSGGKQDQYAAAFGGFNYMEFLQNDLVIVNPLKMKRWIVDELESSMVLYFTGRSRSSAAIINEQKKNTSEGNQTAIEAMHKIKQSAIDTKLALLKGDVGEFARILGEGWENKKKMAGAITNPMIQEAFDVATGAGAMAGKVSGAGGGGFIMFVVEPTRKEEVVRALNNLNGFVMPFQFIDDGAHGWKIYSTDKVQKEGHHHHHH | not failed |
| MKFLKYFTFELRLRYRNPSQILFVFIFPLFLMFAFSSSFGKSIPHYIENNIASILLYSVLSASLTSLSVQIADHQSGKIYQLFVQRGIKKLFYIIAQIVSFMIIIFCSTLVILVVAHYAYDYEFPKLSLLILFYLKLYLYSIPFCLLAMIIGLLAKNTATASAIAMPLMFLSFFFSGMMIPLAQLSGGIRKIADNFFLTQLLSDLNHTLTSNYTVVPNWSRISLSVGLICLLALLVYRRKA | failed |
| MKKSILFTFVLCLLSQWSVAQAPKWVEKAKRSVFSIVTYDKDDKIQNTGNGFFVTEDGVALSDYSLFKGAQRAVIINSEGEKMPVECILGANDMYDIIKFRVGITVKKVPALQVAALAPAVGAEVYLLPYSTQKGGNVTRGKVKKVDNIGGDKYHYYTLDMVLKDKMVSCPVTTADGKVFGVAQKSSGQDTASISYAAGAAFAMSQNISALALSDPALNAIGIKKGLPEDEDQALVYLFIASTQSTPEAYAIALDDFIKTFPNSADGYLRRAGNYVFADKDENHMDKAAADLEHALKVAQKKDDTYYNIAKLIYNYQLSKPETVYKDWTYDQALENVRSAIAIQSLPVYQQLEGDILFAKQDYAGAFASYDKVNQTELASPASFFSAAKAKELSKAAPEEVIALLDSCIARCQTPITSDLAPYLLERAQMYMNVEKYRLALADYDAYFNAVKGSVNDLFYYYREQAAFKAKQFQRALDDIAKAIELNPEDLTYRAEQAVVNLRVGRYEEAEKVLKDALAIDPKYAEGYRLLGICQIQLKQEKAACASFAKAKELGDPNVDELIKKHCK | failed |

From a protein production outcome set (Wang et al. 2014)
